Consider 3 molecules from patent publication US20190382481A1 (Janssen / Centocor, published 2019).

The target in this test is human CD33 (human, UniProt P20138 18-364). Kind of test: cell-based or functional assay.
Chain of human CD33 (P20138 18-364 limits assumed): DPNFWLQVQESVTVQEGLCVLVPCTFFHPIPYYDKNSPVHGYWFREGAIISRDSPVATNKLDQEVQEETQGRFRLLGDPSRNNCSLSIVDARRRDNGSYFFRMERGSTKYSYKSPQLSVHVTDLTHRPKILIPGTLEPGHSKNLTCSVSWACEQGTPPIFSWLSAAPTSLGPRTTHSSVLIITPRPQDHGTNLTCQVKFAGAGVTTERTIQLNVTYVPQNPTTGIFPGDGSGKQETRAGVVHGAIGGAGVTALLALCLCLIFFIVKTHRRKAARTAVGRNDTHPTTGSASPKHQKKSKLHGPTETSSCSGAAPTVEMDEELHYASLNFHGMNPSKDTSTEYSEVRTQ

B1: C3CB14 (bispecific antibody, human IgG4 S228P, lambda, F234A L235A)
heavy 1: not shown
light 1: SYELTQPPSVSVSPGQTASITCSGDKLGNKYASWYQQKPGQSPVLVIYQDTKRPSGIPERVSGSNSGNTATLTISGTQAMDEADYHCQAWDSSTVVFGGGTKLTVLGQPKAAPSVTLFPPSSEELQANKATLVCLISDFYPGAVTVAWKADSSPVKAGVETTTPSKQSNNKYAASSYLSLTPEQWKSHRSYSCQVTHEGSTVEKTVAPTECS
heavy 2: EVQLVESGGGLVQPGGSLRLSCAASGFTFNTYAMNWVRQAPGKGLEWVARIRSKYNNYATYYAASVKGRFTISRDDSKNSLYLQMNSLKTEDTAVYYCARHGNFGNSYVSWFAYWGQGTLVTVSSASTKGPSVFPLAPCSRSTSESTAALGCLVKDYFPEPVTVSWNSGALTSGVHTFPAVLQSSGLYSLSSVVTVPSSSLGTKTYTCNVDHKPSNTKVDKRVESKYGPPCPPCPAPEAAGGPSVFLFPPKPKDTLMISRTPEVTCVVVDVSQEDPEVQFNWYVDGVEVHNAKTKPREEQFNSTYRVVSVLTVLHQDWLNGKEYKCKVSNKGLPSSIEKTISKAKGQPREPQVYTLPPSQEEMTKNQVSLTCLVKGFYPSDIAVEWESNGQPENNYKTTPPVLDSDGSFLLYSKLTVDKSRWQEGNVFSCSVMHEALHNHYTQKSLSLSLGK
light 2: QTVVTQEPSLTVSPGGTVTLTCRSSTGAVTTSNYANWVQQKPGQAPRGLIGGTNKRAPGTPARFSGSLLGGKAALTLSGVQPEDEAEYYCALWYSNLWVFGGGTKLTVLGQPKAAPSVTLFPPSSEELQANKATLVCLISDFYPGAVTVAWKADSSPVKAGVETTTPSKQSNNKYAASSYLSLTPEQWKSHRSYSCQVTHEGSTVEKTVAPTECS
For B1, the “Cytotoxicity EC50 (nM), T-cell mediated cytotoxicity of MOLM-13” value (shortened to “Cytotoxicity EC50 (nM)”) turned out to be 0.538 nM.

B2: C3CB5 (bispecific antibody, human IgG4 S228P, lambda, F234A L235A)
heavy 1: not shown
light 1: SYELTQPPSVSVSPGQTASITCSGDKLGDKYVCWYQQKPGQSPVVVIHQDRKRPSGIPERFSGSNFGNTATLTISGTQAMDEADYYCQAWDSSTVVFGGGTKLTVLGQPKAAPSVTLFPPSSEELQANKATLVCLISDFYPGAVTVAWKADSSPVKAGVETTTPSKQSNNKYAASSYLSLTPEQWKSHRSYSCQVTHEGSTVEKTVAPTECS
heavy 2: EVQLVESGGGLVQPGGSLRLSCAASGFTFNTYAMNWVRQAPGKGLEWVARIRSKYNNYATYYAASVKGRFTISRDDSKNSLYLQMNSLKTEDTAVYYCARHGNFGNSYVSWFAYWGQGTLVTVSSASTKGPSVFPLAPCSRSTSESTAALGCLVKDYFPEPVTVSWNSGALTSGVHTFPAVLQSSGLYSLSSVVTVPSSSLGTKTYTCNVDHKPSNTKVDKRVESKYGPPCPPCPAPEAAGGPSVFLFPPKPKDTLMISRTPEVTCVVVDVSQEDPEVQFNWYVDGVEVHNAKTKPREEQFNSTYRVVSVLTVLHQDWLNGKEYKCKVSNKGLPSSIEKTISKAKGQPREPQVYTLPPSQEEMTKNQVSLTCLVKGFYPSDIAVEWESNGQPENNYKTTPPVLDSDGSFLLYSKLTVDKSRWQEGNVFSCSVMHEALHNHYTQKSLSLSLGK
light 2: QTVVTQEPSLTVSPGGTVTLTCRSSTGAVTTSNYANWVQQKPGQAPRGLIGGTNKRAPGTPARFSGSLLGGKAALTLSGVQPEDEAEYYCALWYSNLWVFGGGTKLTVLGQPKAAPSVTLFPPSSEELQANKATLVCLISDFYPGAVTVAWKADSSPVKAGVETTTPSKQSNNKYAASSYLSLTPEQWKSHRSYSCQVTHEGSTVEKTVAPTECS
Consider B2, for which the “Cytotoxicity EC50 (nM)” value was determined as 1.26 nM.

B3: C3CB16 (bispecific antibody, human IgG4 S228P, lambda, F234A L235A)
heavy 1: not shown
light 1: not shown
heavy 2: EVQLVESGGGLVQPGGSLRLSCAASGFTFNTYAMNWVRQAPGKGLEWVARIRSKYNNYATYYAASVKGRFTISRDDSKNSLYLQMNSLKTEDTAVYYCARHGNFGNSYVSWFAYWGQGTLVTVSSASTKGPSVFPLAPCSRSTSESTAALGCLVKDYFPEPVTVSWNSGALTSGVHTFPAVLQSSGLYSLSSVVTVPSSSLGTKTYTCNVDHKPSNTKVDKRVESKYGPPCPPCPAPEAAGGPSVFLFPPKPKDTLMISRTPEVTCVVVDVSQEDPEVQFNWYVDGVEVHNAKTKPREEQFNSTYRVVSVLTVLHQDWLNGKEYKCKVSNKGLPSSIEKTISKAKGQPREPQVYTLPPSQEEMTKNQVSLTCLVKGFYPSDIAVEWESNGQPENNYKTTPPVLDSDGSFLLYSKLTVDKSRWQEGNVFSCSVMHEALHNHYTQKSLSLSLGK
light 2: QTVVTQEPSLTVSPGGTVTLTCRSSTGAVTTSNYANWVQQKPGQAPRGLIGGTNKRAPGTPARFSGSLLGGKAALTLSGVQPEDEAEYYCALWYSNLWVFGGGTKLTVLGQPKAAPSVTLFPPSSEELQANKATLVCLISDFYPGAVTVAWKADSSPVKAGVETTTPSKQSNNKYAASSYLSLTPEQWKSHRSYSCQVTHEGSTVEKTVAPTECS
Turning to B3, the “Cytotoxicity EC50 (nM)” value turned out to be 0.667 nM.
